{"source": "patent US20120277120", "assay_in_all_cases": "cell_activity", "key": {"[1]": {"system": "ZFN.gfp (CompoZr zinc finger nuclease heterodimer ZFN.gfp.1/ZFN.gfp.2) (synthetic)", "conditions": "yeast, three integrated target copies; 0 of 96 with empty vector; monomer to half-site assignment not stated; scale: of 96 colonies with all three loci replaced"}, "[2]": {"system": "SFC1-specific ZFN (synthetic)", "conditions": "yeast, pCUT015 alone; 76% with dual nuclease plasmid pCUT032"}, "[3]": {"system": "FS-specific TALEN (synthetic)", "conditions": "yeast; 3 clones single, 1 double integration; half-sites not stated; scale: clone of 48 with all three ADS cassettes integrated"}, "[4]": {"system": "YJR030c-specific ZFN (synthetic)", "conditions": "yeast, pCUT016 alone; 63% with dual nuclease plasmid pCUT032"}}, "data": [{"substance": "ACAACTACAACAGCCACAACGTCTATATCATGGCCGACAAGCA (double strand) [ZFN.gfp target in emgfp-delta]", "values": [{"measurement": "activity", "setting": "[1]", "result": 23}]}, {"substance": "SFC1 ORF target", "values": [{"measurement": "activity (% GFP-positive)", "setting": "[2]", "result": 50}]}, {"substance": "TAGTGGAGGAATTAAAAGAGGAAGTTAAGAAGGAATTGATAACTATCAA (double strand) [FS TALEN target site]", "values": [{"measurement": "activity", "setting": "[3]", "result": 1}]}, {"substance": "YJR030c ORF target", "values": [{"measurement": "activity (% ADE2-positive)", "setting": "[4]", "result": 5}]}]}
